Measured values reported in patent US20020086007A1, “Angiogenesis-inhibiting peptides and proteins and methods of use” (priority 2000, published 2002).

Tests used:
[1] = system: tumor induced angiogenesis; details: systemic therapy; cited from earlier work
[2] = system: cultured endothelial cells; details: cited from earlier work
HUVECs [3] = assay: Localization of endostatin into cells and nuclei (cytosol/nuclei extract, immunoprecipitation, Western blot); format: cell-based, human; details: 100 ug/ml recombinant endostatin, 30 minutes; FIG. 4
Procedure: 3 T-75 of HUVECs grown at regular growth condition (about 95% confluent) were treated with 100 ug/ml recombinant endostatin for 30 minutes and rinsed with warm 1XPBS and then trypsinized. The control cells from 3 T-75 were the HUVECs treated with the same concentration of endostatin for 1 second. The trypsinized cells were then washed with cold PBS twice. About 40 μl of cell pellet was obtained from all three T-75 flasks. The cytosol extract and nuclei extract was obtained using a nuclei extraction kit (Pierce Company, Rockford, Ill.). The rabbit polyclonal antibodies against human endostatin (Cytimmune Sciences, College Station, Md.) were used to immunoprecipite endostatin protein present in the extract. The immunoprecipited elution was analyzed on Western blot probed with either the same polyclonal antibodies or the mAb 96-2. […] (FIG. 4).

HUVECs [4] = assay: Staining of fixed endothelial cells with Alexa-labeled endostatin; format: cell-based, human; details: HUVECs grown at 5 ng/ml VEGF, 40 μg/μl, 30 mins, FIG. 7
Procedure: HUVECs grown at 5 ng/ml VEGF were fixed in 3.7% formaldehyde for 5 mins. and cold methanol for 5 mins. and then stained with […] Alexa-labeled endostatin for 30 mins.

Live HUVECs cells = assay: Staining of live endothelial cells with Alexa-labeled endostatin (fluorescence microscopy); format: cell-based, human; details: 8 ug/ml, 5, 15, 30 and 60 minutes; FIG. 6
Procedure: Live HUVECs cells were treated with 8 ug/mI Alexa-labeled endostatin for 5 minutes, 15 minutes, 30 minutes and 60 minutes, land washed with M-200 medium and fixed in 3.7% formaldehyde for 5 minutes and cold methanol for 5 minutes. Alexa-labeled endostatin can be visualized under the fluorescent microscope.

Molecule | suppression of tumor induced angiogenesis [1] | inhibition of endothelial proliferation and angiogenesis [2] | localization into cell and nuclei (HUVECs [3]) | staining of fixed cells (HUVECs [4]) | staining of live cells (Live HUVECs cells)
endostatin: antiangiogenic fragment of a most C-terminal non-collagenous region of a collagen protein (SEQ ID NO: 1) (protein) HSHRDFQPVLHLVALNSPLSGGMRGIRGADFQCFQQARAVGLAGTFRAFLSSRLQDLYSIVRRADRAAVPIVNLKDELLFPSWEALFSGSEGPLKPGARIFSFDGKDVLRHPTWPQKSVWHGSDPNGRRLTESYCETWRTEAPSATGQASSLLGGRLLGQSAASCHHAYIVLCIENSFMTASK | nearly complete suppression | potent and specific inhibitor | able to localize into HUVEC cell and nuclei | – | –
Alexa-labeled endostatin: endostatin labeled with Alexa dye, visualized under the fluorescent microscope (conjugate, UniProt P39060 1572-1754, looked up, Endostatin Alexa dye label, endostatin labeled with Alexa dye, visualized under the fluorescent microscope) Endostatin: HSHRDFQPVLHLVALNSPLSGGMRGIRGADFQCFQQARAVGLAGTFRAFLSSRLQDLYSIVRRADRAAVPIVNLKDELLFPSWEALFSGSEGPLKPGARIFSFDGKDVLRHPTWPQKSVWHGSDPNGRRLTESYCETWRTEAPSATGQASSLLGGRLLGQSAASCHHAYIVLCIENSFMTASK | – | – | – | stained not only the cytoskeleton network, but also stained the nuclei | stains the cytosol and nuclei even as early as at the 5 minute time point
